Experimental data taken from the supplement of paper PMC9170038.

System: MS2 coat protein
Experiment: apparent KD of MS2 coat protein; designed switch direction (-1 OFF switch, 1 ON switch): 1; higher = weaker reporter binding
Outline: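 Transcription of designed RNA switches on Illumina chips was done by stalled E. coli RNA polymerase. SNAP-549-labelled MS2 coat protein was then titrated in doubling steps from 0.7 or 1.5 nM to 3 µM, with steps of 0.8–1.5 h at the lowest and 10–20 min at the highest concentration. The per-design median over clusters of curve-fitted normalised fluorescence is reported as apparent KD.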

[1] = input ligand: microRNA oligo, concentration not stated
[2] = Eterna round: R95, input ligand: FMN 200 uM
[3] = Eterna round: R95, input ligand: microRNA oligo, concentration not stated
[4] = Eterna round: R95, input ligand: none

## GGUAGGUUACUACCAAUCUACAUGAGGAUCACCCAUGUGUAGGAGGAUAUGGUACCUAUUUGGUACCAGAAGGCCUGAUUAAUU [Fiskers NG3ss - 8] (Eterna round: R96, puzzle: Same State NG 3)
Input ligand: FMN 200 uM
  apparent KD of MS2 coat protein: 115 nM
[1]
  apparent KD of MS2 coat protein: 80.4 nM
Input ligand: none
  apparent KD of MS2 coat protein: 247 nM

## GGUAUCGGCACAGGAUAUGCUAUCCUUUGGGUAGCAGAAGGGUGAACAUGAGGAUCACCCAUGUAGGUGCCAGGGCGUGAGCCC [JL SSNG1 1.80] (Eterna round: R96, puzzle: Same State NG 1)
Input ligand: FMN 200 uM
  apparent KD of MS2 coat protein: 213 nM
[1]
  apparent KD of MS2 coat protein: 56.4 nM
Input ligand: none
  apparent KD of MS2 coat protein: 149 nM

## GGUCCAGCCUGAGCUGGACAAAAGCAUGUACAUGAGGAUCACCCAUGUCAUGUACAAGCUUUUUGCUCGUCAUAAUG [Mat - hsa-mir-208a - 99] (puzzle: Sensor for hsa-mir-208a)
[2]
  apparent KD of MS2 coat protein: 713 nM
[3]
  apparent KD of MS2 coat protein: 18.6 nM
[4]
  apparent KD of MS2 coat protein: 806 nM

## GGUCCAGCCUGAGCUGGACAAAAGCAUGUACAUGAGGAUCACCCAUGUCAUGUACAAGCUUUUUGCUCGUCUAAAAU [Mat - hsa-mir-208a - 101] (puzzle: Sensor for hsa-mir-208a)
[2]
  apparent KD of MS2 coat protein: 508 nM
[3]
  apparent KD of MS2 coat protein: 15.8 nM
[4]
  apparent KD of MS2 coat protein: 629 nM

## GGUCCAGCCUGAGCUGGACAAAAGCAUGUACAUGAGGAUCACCCAUGUCAUGUACAAGCUUUUUGCUCGUCUAAAGA [Mat - hsa-mir-208a - 91] (puzzle: Sensor for hsa-mir-208a)
[2]
  apparent KD of MS2 coat protein: 517 nM
[3]
  apparent KD of MS2 coat protein: 17.7 nM
[4]
  apparent KD of MS2 coat protein: 705 nM

## GGUCCAGCCUGAGCUGGACAAAAGCAUGUACAUGAGGAUCACCCAUGUCAUGUACAAGCUUUUUGCUCGUCUAAAUA [Mat - hsa-mir-208a - 90] (puzzle: Sensor for hsa-mir-208a)
[2]
  apparent KD of MS2 coat protein: 464 nM
[3]
  apparent KD of MS2 coat protein: 16.3 nM
[4]
  apparent KD of MS2 coat protein: 557 nM

## GGUCCAGCCUGAGCUGGACAAAAGCAUGUACAUGAGGAUCACCCAUGUCAUGUACAAGCUUUUUGCUCGUCUAAAUU [Mat - hsa-mir-208a - 94] (puzzle: Sensor for hsa-mir-208a)
[2]
  apparent KD of MS2 coat protein: 781 nM
[3]
  apparent KD of MS2 coat protein: 15.1 nM
[4]
  apparent KD of MS2 coat protein: 578 nM

## GGUCCAGCCUGAGCUGGACAAAAGCAUGUACAUGAGGAUCACCCAUGUCAUGUACAAGCUUUUUGCUCGUCUUAAUA [Mat - hsa-mir-208a - 89] (puzzle: Sensor for hsa-mir-208a)
[2]
  apparent KD of MS2 coat protein: 583 nM
[3]
  apparent KD of MS2 coat protein: 15 nM
[4]
  apparent KD of MS2 coat protein: 548 nM

## GGUCCAGCCUGAGCUGGACAAAAGCAUGUACAUGAGGAUCACCCAUGUCAUGUAUAAGCUUUUUGCUCGUCUUAAAA [JL mod - D87 - 11] (puzzle: Sensor for hsa-mir-208a)
[2]
  apparent KD of MS2 coat protein: 20.4 nM
[3]
  apparent KD of MS2 coat protein: 10.5 nM
[4]
  apparent KD of MS2 coat protein: 20 nM

## GGUCCAGCCUGAGCUGGACAAAAGCAUGUACAUGAGGAUCACCCAUGUUCAUGUACAAGCUUUUUGCUCGUCUUAUU [salish99_208a_r3_049] (puzzle: Sensor for hsa-mir-208a)
[2]
  apparent KD of MS2 coat protein: 560 nM
[3]
  apparent KD of MS2 coat protein: 15.8 nM
[4]
  apparent KD of MS2 coat protein: 687 nM

## GGUCCAGCCUGAGCUGGACCGAAGCGUGUACAUGAGGAUCACCCAUGUCAUGUACAAGCUUUUUGCUCGUCUUAUUG [JL-shm-2.10 JL Mod] (puzzle: Sensor for hsa-mir-208a)
[2]
  apparent KD of MS2 coat protein: 149 nM
[3]
  apparent KD of MS2 coat protein: 18.8 nM
[4]
  apparent KD of MS2 coat protein: 285 nM

## GGUCCGGCCUGAGCUGGACCGAAGCAUGUACAUGAGGAUCACCCAUGUCAUGUACAGGCUUCUUGCUCGUCUUGUUG [JL-shm-2.15 JL Mod] (puzzle: Sensor for hsa-mir-208a)
[2]
  apparent KD of MS2 coat protein: 90.3 nM
[3]
  apparent KD of MS2 coat protein: 16.6 nM
[4]
  apparent KD of MS2 coat protein: 219 nM

## GGUCGGACUACAUGAGGAUCACCCAUGUGUGCGGAAACGCCAUAGGAUAUCUGUCCGAAAAGGUCAGAGAAGGGUGAACCGACC [Fiskers NG3ss - 67] (Eterna round: R96, puzzle: Same State NG 3)
Input ligand: FMN 200 uM
  apparent KD of MS2 coat protein: 882 nM
[1]
  apparent KD of MS2 coat protein: 30.1 nM
Input ligand: none
  apparent KD of MS2 coat protein: 73.9 nM

## GGUGCAAUUAACGCCUACAUGAGGAUCACCCAUGUAUGUAGGCAGGAUAUCGUUUGCAAAGCAAACGAGAAGGGCUGUAGUACC [Mat - Same State NG 3 - JL Mod - D40] (Eterna round: R96, puzzle: Same State NG 3)
Input ligand: FMN 200 uM
  apparent KD of MS2 coat protein: 51.1 nM
[1]
  apparent KD of MS2 coat protein: 109 nM
Input ligand: none
  apparent KD of MS2 coat protein: 131 nM

## GGUGCCAAUAAAGCCUACAUGAGGAUCACCCAUGUAUGUAGGCAGGAUAUCGUUUGCAAAGCAAACGAGAAGGGCCGAGGCACC [Mat - Same State NG 3 - JL Mod - D55] (Eterna round: R96, puzzle: Same State NG 3)
Input ligand: FMN 200 uM
  apparent KD of MS2 coat protein: 18 nM
[1]
  apparent KD of MS2 coat protein: 29.3 nM
Input ligand: none
  apparent KD of MS2 coat protein: 39.6 nM

## GGUGCCAAUAAAGCCUACAUGAGGAUCACCCAUGUAUGUAGGCAGGAUAUCGUUUGCAAAGCAAACGAGAAGGGCUGAGGCACC [Mat - Same State NG 3 - JL Mod - D52] (Eterna round: R96, puzzle: Same State NG 3)
Input ligand: FMN 200 uM
  apparent KD of MS2 coat protein: 18.4 nM
[1]
  apparent KD of MS2 coat protein: 39.8 nM
Input ligand: none
  apparent KD of MS2 coat protein: 38.8 nM

## GGUGCCAAUAAAGCCUACAUGAGGAUCACCCAUGUAUGUAGGCAGGAUAUCGUUUGCUUUGCAAACGAGAAGGGCUGAGGCACC [JL SSNG3 1.18] (Eterna round: R96, puzzle: Same State NG 3)
Input ligand: FMN 200 uM
  apparent KD of MS2 coat protein: 16.8 nM
[1]
  apparent KD of MS2 coat protein: 28.6 nM
Input ligand: none
  apparent KD of MS2 coat protein: 38.6 nM

## GGUGCGAAAUAAGCCUACAUGAGGAUCACCCAUGUAUGUAGGCAGGAUAUCGUAUGCAAAGCAUACGAGAAGGGCUGUCGCACC [Mat - Same State NG 3 - JL Mod - D48] (Eterna round: R96, puzzle: Same State NG 3)
Input ligand: FMN 200 uM
  apparent KD of MS2 coat protein: 33.2 nM
[1]
  apparent KD of MS2 coat protein: 61 nM
Input ligand: none
  apparent KD of MS2 coat protein: 94.6 nM

## GGUGGCGAAAGCGACAUGAGGAUCACCCAUGUCAUCGGAGGGCAGGAUAUCCGGCGAAAGCCGAAGGAGAAGGGUCGAAAAGAA [ssng3v2 b] (Eterna round: R96, puzzle: Same State NG 3)
Input ligand: FMN 200 uM
  apparent KD of MS2 coat protein: 62.4 nM
[1]
  apparent KD of MS2 coat protein: 25.8 nM
Input ligand: none
  apparent KD of MS2 coat protein: 43.6 nM

## GGUGGGUUGCUGCCGGCACAUGAGGAUCACCCAUGUUUUGGGAAGGAUAUGGUACCUAUUUGGUACCAGAAGGUCCCGUUGGUG [salish99_SSNG3_r04_709] (Eterna round: R96, puzzle: Same State NG 3)
Input ligand: FMN 200 uM
  apparent KD of MS2 coat protein: 978 nM
[1]
  apparent KD of MS2 coat protein: 449 nM
Input ligand: none
  apparent KD of MS2 coat protein: 898 nM

## GGUGGGUUGCUGCCGGCACAUGAGGAUCACCCAUGUUUUGGGAAGGAUAUGGUCCCUCUUUGGUGCCAGAAGGUCCCGUUGGUC [salish99_SSNG3_r04_715] (Eterna round: R96, puzzle: Same State NG 3)
Input ligand: FMN 200 uM
  apparent KD of MS2 coat protein: 232 nM
[1]
  apparent KD of MS2 coat protein: 75.3 nM
Input ligand: none
  apparent KD of MS2 coat protein: 165 nM

## GGUGGGUUGCUGCCGGCACAUGAGGAUCACCCAUGUUUUGGGAAGGAUAUGGUCCCUCUUUGGUGCCAGAAGGUCCCGUUGGUG [salish99_SSNG3_r04_714] (Eterna round: R96, puzzle: Same State NG 3)
Input ligand: FMN 200 uM
  apparent KD of MS2 coat protein: 691 nM
[1]
  apparent KD of MS2 coat protein: 402 nM
Input ligand: none
  apparent KD of MS2 coat protein: 743 nM

## GGUUUAGUCAAGUGCCGUUGCACUUGAAAACAUGAGGAUCACCCAUGUUUGGGACAAGCUUUGCUCCUCGUCUUUCC [Tiatmaraen] (puzzle: Sensor for hsa-mir-208a)
[2]
  apparent KD of MS2 coat protein: 477 nM
[3]
  apparent KD of MS2 coat protein: 66.3 nM
[4]
  apparent KD of MS2 coat protein: 591 nM

## GGUUUAGUCAGGCACAAUUGCGCCUGAAAACAUGAGGAUCACCCAUGUUUGGGACAAGCUUUGCUCCUCGUCUUGCA [Enzati] (puzzle: Sensor for hsa-mir-208a)
[2]
  apparent KD of MS2 coat protein: 306 nM
[3]
  apparent KD of MS2 coat protein: 68.1 nM
[4]
  apparent KD of MS2 coat protein: 385 nM

## GUAAAACAUGAGGAUCACCCAUGUCAACAAAGUCGAGGAUAUGGGCAAAUAAAAUAAGAACCAGAAGGCGAAUAAG [salish99_SS1_r3_009] (Eterna round: R96, puzzle: Same State 1)
Input ligand: FMN 200 uM
  apparent KD of MS2 coat protein: 45.9 nM
[1]
  apparent KD of MS2 coat protein: 125 nM
Input ligand: none
  apparent KD of MS2 coat protein: 235 nM

## GUAAAACAUGAGGAUCACCCAUGUCAACAAAGUCGAGGAUAUGGGCAAAUAAAAUAAGAACCAGAAGGCGAAUAAG [salish99_SS1_r3_009] (puzzle: Same State 1)
[2]
  apparent KD of MS2 coat protein: 44 nM
[3]
  apparent KD of MS2 coat protein: 703 nM
[4]
  apparent KD of MS2 coat protein: 1290 nM

## GUAGAUAUAGAGGAGGAUAUUCGAUGAGGAACAUGAGGAUCACCCAUGUAAGAGAGAGAUGAUGAGAAGAAGGCUUAGAGGGAUG [Altered State 2-4 - Jieux - Same State 2] (puzzle: Same State 2)
[2]
  apparent KD of MS2 coat protein: 25.1 nM
[3]
  apparent KD of MS2 coat protein: 35.8 nM
[4]
  apparent KD of MS2 coat protein: 36.4 nM
